Assay results: patent publication US20140120625

Target: FLPe (thermostable FLP variant) (UniProt P03870)
Assay: cell_activity

UniProt P03870, sequence (P03870 whole entry, change not shown): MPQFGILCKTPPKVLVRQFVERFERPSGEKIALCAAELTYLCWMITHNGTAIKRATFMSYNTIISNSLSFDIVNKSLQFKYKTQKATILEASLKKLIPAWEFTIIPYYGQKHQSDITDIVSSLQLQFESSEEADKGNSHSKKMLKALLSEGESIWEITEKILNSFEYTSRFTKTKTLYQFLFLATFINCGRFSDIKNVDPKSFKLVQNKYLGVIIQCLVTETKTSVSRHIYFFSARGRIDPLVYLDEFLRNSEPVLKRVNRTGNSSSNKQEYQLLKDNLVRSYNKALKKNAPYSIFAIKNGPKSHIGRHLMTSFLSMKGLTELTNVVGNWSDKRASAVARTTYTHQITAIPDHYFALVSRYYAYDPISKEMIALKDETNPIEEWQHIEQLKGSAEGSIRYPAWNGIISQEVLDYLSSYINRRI

| Sequence | binding signal (simultaneous four-locus gene swapping frequency in A. niger M1146, FRT-F/FRT-F3 pair) [fold vs FLP] | binding signal (same assay, paired with FRT-F) [fold vs FLP] |
| --- | --- | --- |
| TTGAAGTTCCTATTCCGAGTTCCTATTCTCTAGAAAGTATAGGAACTTC (double strand) [FRT-F] | 3 | – |
| TTGAAGTTCCTATTCCGAGTTCCTATTCTTCAAATAGTATAGGAACTTCA (double strand) [FRT-F3] | – | 3 |
